According to article PMC12416549 (2024):
Positions count from the first letter of the chain named. Numbers in names are those of the source.

T1: TNFR1 (Homo sapiens, UniProt P19438)
T1 chain: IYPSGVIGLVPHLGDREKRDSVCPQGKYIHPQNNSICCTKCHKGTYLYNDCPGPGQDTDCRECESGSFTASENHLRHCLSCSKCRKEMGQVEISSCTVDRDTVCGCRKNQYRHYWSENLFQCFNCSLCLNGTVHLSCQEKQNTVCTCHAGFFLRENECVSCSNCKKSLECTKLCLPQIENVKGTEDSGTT

B1: E78H (designed binder)
chain: SMEEEVEKAAKEYEKKKKEAIEKHLEKLKAKDKEAAERFLKELEEAAKEYAKDEAKTMSEEEAKRRAKKYKEKVLLSHLSEEEQKEIKEAEEKLVRTILKYVEEAAK
B2: L28I (designed binder)
chain: B1 chain with L28I, H78E
B3: K69E (designed binder)
chain: B1 chain with K69E, H78E
B4: E81N (designed binder)
chain: B1 chain with H78E, E81N
B5: K33F (designed binder)
chain: B1 chain with K33F, H78E
B6: E60L (designed binder)
chain: B1 chain with E60L, H78E
B7: L99W (designed binder)
chain: B1 chain with H78E, L99W
B8: D53G (designed binder)
chain: B1 chain with D53G, H78E
B9: E89F (designed binder)
chain: B1 chain with H78E, E89F
B10: E4T (designed binder)
chain: B1 chain with E4T, H78E
B11: A35V (designed binder)
chain: B1 chain with A35V, H78E
B12: Y70K (designed binder)
chain: B1 chain with Y70K, H78E
B13: E103T (designed binder)
chain: B1 chain with H78E, E103T
B14: E72R (designed binder)
chain: B1 chain with E72R, H78E
B15: K52E (designed binder)
chain: B1 chain with K52E, H78E
B16: K8N (designed binder)
chain: B1 chain with K8N, H78E
B17: A20R (designed binder)
chain: B1 chain with A20R, H78E
B18: I21W (designed binder)
chain: B1 chain with I21W, H78E
B19: Y70N (designed binder)
chain: B1 chain with Y70N, H78E
B20: S59F (designed binder)
chain: B1 chain with S59F, H78E
B21: K88T (designed binder)
chain: B1 chain with H78E, K88T
B22: A63H (designed binder)
chain: B1 chain with A63H, H78E
B23: V6I (designed binder)
chain: B1 chain with V6I, H78E
B24: A9M (designed binder)
chain: B1 chain with A9M, H78E
B25: A90P (designed binder)
chain: B1 chain with H78E, A90P
B26: A51K (designed binder)
chain: B1 chain with A51K, H78E
B27: E3D (designed binder)
chain: B1 chain with E3D, H78E
B28: K15F (designed binder)
chain: B1 chain with K15F, H78E
B29: S80G (designed binder)
chain: B1 chain with H78E, S80G
B30: A36V (designed binder)
chain: B1 chain with A36V, H78E
B31: D53F (designed binder)
chain: B1 chain with D53F, H78E
B32: A10T (designed binder)
chain: B1 chain with A10T, H78E
B33: E86Y (designed binder)
chain: B1 chain with H78E, E86Y
B34: V95M (designed binder)
chain: B1 chain with H78E, V95M
B35: A9Q (designed binder)
chain: B1 chain with A9Q, H78E
B36: I87K (designed binder)
chain: B1 chain with H78E, I87K
B37: K18L (designed binder)
chain: B1 chain with K18L, H78E
B38: K33Q (designed binder)
chain: B1 chain with K33Q, H78E
B39: K17F (designed binder)
chain: B1 chain with K17F, H78E
B40: L40A (designed binder)
chain: B1 chain with L40A, H78E
B41: I87F (designed binder)
chain: B1 chain with H78E, I87F
B42: A46D (designed binder)
chain: B1 chain with A46D, H78E
B43: E78I (designed binder)
chain: B1 chain with H78I
B44: E62W (designed binder)
chain: B1 chain with E62W, H78E
B45: E89Y (designed binder)
chain: B1 chain with H78E, E89Y
B46: M58V (designed binder)
chain: B1 chain with M58V, H78E
B47: K52H (designed binder)
chain: B1 chain with K52H, H78E
B48: L75H (designed binder)
chain: B1 chain with L75H, H78E
B49: S59E (designed binder)
chain: B1 chain with S59E, H78E
B50: E81G (designed binder)
chain: B1 chain with H78E, E81G
B51: L28Q (designed binder)
chain: B1 chain with L28Q, H78E
B52: E81V (designed binder)
chain: B1 chain with H78E, E81V
B53: K31W (designed binder)
chain: B1 chain with K31W, H78E
B54: S80D (designed binder)
chain: B1 chain with H78E, S80D
B55: E37K (designed binder)
chain: B1 chain with E37K, H78E
B56: K31A (designed binder)
chain: B1 chain with K31A, H78E
B57: E92H (designed binder)
chain: B1 chain with H78E, E92H
B58: R96K (designed binder)
chain: B1 chain with H78E, R96K
B59: E4H (designed binder)
chain: B1 chain with E4H, H78E

Target: T1, TNFR1
Experiment: yeast display SC50

Row | Binder | apparent Kd (screen) [nM]
1 | B1 | 0.49
2 | B2 | 1.86
3 | B3 | 0.593
4 | B4 | 0.49
5 | B5 | 0.49
6 | B6 | 0.446
7 | B7 | 11.4
8 | B8 | 12.5
9 | B9 | 1.86
10 | B10 | 0.446
11 | B11 | 0.653
12 | B12 | 0.446
13 | B13 | 0.718
14 | B14 | 7.07
15 | B15 | 0.446
16 | B16 | 0.718
17 | B17 | 0.446
18 | B18 | 0.49
19 | B19 | 8.56
20 | B20 | 7.07

Row | Binder | apparent Kd (screen) [nM]
21 | B21 | 0.446
22 | B22 | 4.39
23 | B23 | 0.49
24 | B24 | 0.446
25 | B25 | 26.9
26 | B26 | 0.49
27 | B27 | 2.48
28 | B28 | 0.446
29 | B29 | 2.48
30 | B30 | 0.446
31 | B31 | 2.48
32 | B32 | 0.446
33 | B33 | 1.4
34 | B34 | 10.4
35 | B35 | 0.446
36 | B36 | 9.41
37 | B37 | 1.69
38 | B38 | 0.869
39 | B39 | 0.446
40 | B40 | 0.446

Row | Binder | apparent Kd (screen) [nM]
41 | B41 | 5.84
42 | B42 | 2.73
43 | B43 | 0.49
44 | B44 | 0.956
45 | B45 | 2.25
46 | B46 | 2.25
47 | B47 | 0.956
48 | B48 | 1.69
49 | B49 | 0.956
50 | B50 | 1.16
51 | B51 | 0.539
52 | B52 | 0.446
53 | B53 | 0.79
54 | B54 | 1.4
55 | B55 | 0.49
56 | B56 | 0.718
57 | B57 | 3
58 | B58 | 0.718
59 | B59 | 1.4
